From PMC3777412 (Nature communications, 2013)
Where no end group is shown, it is not given here. [ ]: non-standard residue; d: D form. The star is where a group is joined. Biotin = O=C1N[C@H]2[C@H](CS[C@H]2CCCCC(=O)*)N1; pY = N[C@@H](Cc1ccc(OP(=O)(O)O)cc1)C(=O)O

B1: pY542 peptide (peptide)
peptide: Biotin-ASASAKGHE[pY]TNIKYS
B2: pY580 peptide (peptide)
peptide: Biotin-ASASASARV[pY]ENVGLM

Target: Grb2, histidine-tagged, purified (UniProt P62993 1-217)
Test: SPR

Grb2, histidine-tagged, purified, sequence (P62993 whole entry): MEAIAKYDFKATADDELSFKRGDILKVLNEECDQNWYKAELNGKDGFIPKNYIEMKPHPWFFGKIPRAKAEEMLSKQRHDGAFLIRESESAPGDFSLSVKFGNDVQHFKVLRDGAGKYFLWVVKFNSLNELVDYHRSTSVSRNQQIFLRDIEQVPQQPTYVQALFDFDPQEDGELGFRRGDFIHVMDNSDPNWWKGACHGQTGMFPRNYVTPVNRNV

Binder | Kd [nM]
B1 | 118 ± 10.3
B2 | 68.5 ± 8.7
